B1: antibody D48 scFv-hFc (Fc fusion, not shown: a dimerising Fc or GST)
scFv: EVQLVETGGGVVRPGRSLRLSCTTSGFSFSGSAMHWVRQAPGKGLEWVAVISHDGNIIQYHDSVKGRFTISRDNSKNVLLLQMNSLRVDDTAMYYCARDVWLLPATISYAFDFWGQGTMVTVSSASTGGGGSGGGGSGGGGSVIWMTQSPPSLSASIGDTVTITCRASQGISNSIAWYQRRPGKAPELLVYAAYRLQSGVPSRLSGSGSGAEYTLTIKNMQPEDFATYYCQQYYDNPLTFGGGTKVEIK
B2: antibody D48 human-guinea pig chimeric IgG2κ (antibody, V domains shown)
VH: EVQLVETGGGVVRPGRSLRLSCTTSGFSFSGSAMHWVRQAPGKGLEWVAVISHDGNIIQYHDSVKGRFTISRDNSKNVLLLQMNSLRVDDTAMYYCARDVWLLPATISYAFDFWGQGTMVTVSS
VL: VIWMTQSPPSLSASIGDTVTITCRASQGISNSIAWYQRRPGKAPELLVYAAYRLQSGVPSRLSGSGSGAEYTLTIKNMQPEDFATYYCQQYYDNPLTFGGGTKVEIK
B3: antibody D48 Fab (Fab, V domains shown, not shown: small tags and cut ends; a dimerising Fc or GST)
VH: EVQLVETGGGVVRPGRSLRLSCTTSGFSFSGSAMHWVRQAPGKGLEWVAVISHDGNIIQYHDSVKGRFTISRDNSKNVLLLQMNSLRVDDTAMYYCARDVWLLPATISYAFDFWGQGTMVTVSS
VL: VIWMTQSPPSLSASIGDTVTITCRASQGISNSIAWYQRRPGKAPELLVYAAYRLQSGVPSRLSGSGSGAEYTLTIKNMQPEDFATYYCQQYYDNPLTFGGGTKVEIK
B4: antibody D48 human-murine chimeric IgG2a (antibody, V domains shown, not shown: a dimerising Fc or GST)
VH: EVQLVETGGGVVRPGRSLRLSCTTSGFSFSGSAMHWVRQAPGKGLEWVAVISHDGNIIQYHDSVKGRFTISRDNSKNVLLLQMNSLRVDDTAMYYCARDVWLLPATISYAFDFWGQGTMVTVSS
VL: VIWMTQSPPSLSASIGDTVTITCRASQGISNSIAWYQRRPGKAPELLVYAAYRLQSGVPSRLSGSGSGAEYTLTIKNMQPEDFATYYCQQYYDNPLTFGGGTKVEIK

What was measured:
[1] = target: envelope glycoprotein B (gB) of HSV-1 strain KOS (HSV-1 strain KOS, UniProt P06437 31-904); assay: cell-based or functional assay
[2] = target: envelope glycoprotein B (gB) of HSV-2 strain MS (HSV-2 strain MS); assay: cell-based or functional assay
[3] = target: recombinant gB (gB1-705-strep), ectodomain of wild type gB of HSV-2 strain 333 (HSV-2 strain 333, UniProt P06763 23-727)

Binder	50% plaque number-reducing activity [1]	50% plaque number-reducing activity [2]	Kd [3]
B1	1 nM	0.12 nM	–
B2	0.94 nM	7.5 nM	0.76 nM
B3	2.7 nM	4.4 nM	–
B4	1.9 nM	1.6 nM	–

Source: patent US20200239549A1 (KM BIOLOGICS, published 2020)
